The text below walks through data of patent publication US20230212266A1 (FRED HUTCHINSON CANCER CENTER, published 2023).

In assay [1] the target is T1, SARS-CoV-2 receptor binding domain (RBD) (SARS-CoV-2, UniProt P0DTC2 319-591). Nature of the assay: BLI, mAb on anti-human Fc probe, antigen in solution.
Assay [2] deals with T1, SARS-CoV-2 receptor binding domain (RBD). Nature of the assay: BLI: mAb on anti-human Fc probe, dipped in the antigen. Background: In BLI a coated tip is dipped into the sample, and binding shifts an interference pattern.
For assay [3] the target is unchanged. The description is as above. This is another data set of the same source.
The target is the same in assay [4]. The assay is described as above. The source holds these as a separate data set.
The target is the same in assay [5]. Nature of the assay: BLI, mAb on anti-human Fc probe, antigen in solution. This is another data set of the same source.
The target is the same in assay [6]. Nature of the assay: BLI: mAb on anti-human Fc probe, dipped in the antigen. This is another data set of the same source.
Assay [7] has the same target. Described as above. This is another data set of the same source.
For assay [8] the target is unchanged. The assay is described as above. This is another data set of the same source.
Assay [9] has the same target. Nature of the assay: BLI, mAb on anti-human Fc probe, antigen in solution. This is another data set of the same source.
Assay [10] has the same target. The assay is described as above. The source holds these as a separate data set.
Assay [11] shares this target. The description is as above. This is another data set of the same source.
For assay [12] the target is unchanged. Nature of the assay: BLI: mAb on anti-human Fc probe, dipped in the antigen. The source holds these as a separate data set.
For assay [13] the target is unchanged. The assay is described as above. The source holds these as a separate data set.
Assay [14] has the same target. Described as above. The source holds these as a separate data set.
The target is the same in assay [15]. Nature of the assay: BLI, mAb on anti-human Fc probe, antigen in solution. The source holds these as a separate data set.
The target is the same in assay [16]. The description is as above. This is another data set of the same source.
Assay [17] shares this target. Nature of the assay: BLI: mAb on anti-human Fc probe, dipped in the antigen. This is another data set of the same source.
Assay [18] has the same target. Nature of the assay: BLI, mAb on anti-human Fc probe, antigen in solution. This is another data set of the same source.

B1: CV25 (antibody, V domains shown)
VH: QVQLQESGPGLVKPSQTLSLTCTVSGGSISSGDYYWSWIRQPPGKGLEWIGYIYYSGSTYYNPSLKSRVTISVDTSKNQFSLKLSSVTAADTAVYYCARDHHYDFWSGYSSYYYYGMDVWGQGTTVTVSS
VL: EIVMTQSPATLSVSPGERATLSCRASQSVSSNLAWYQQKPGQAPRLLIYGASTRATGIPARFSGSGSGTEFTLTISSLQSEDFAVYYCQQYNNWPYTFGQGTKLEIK
In the case of B1, in assay [1], the binding result is “no binding”.

B2: CV2-62 (antibody, V domains shown)
VH: EVQLVESGGGLVQPGGSLRLSCAASGFTFSSYEMNWVRQAPGKGLEWVSYISSSGSTIYYADSVKGRFTISRDNAKNSLYLQMNSLRAEDTAVYYCARVPRPPWDDFWSGYLYYFDYWGQGTLVTVSS
VL: DIQMTQSPSSLSASVGDRVTITCRASQGISNYLAWYQQKPGKVPKLLIYAASTLQSGVPSRFSGSGSGTDFTLTISSLQPEDVATYYCQKYNSAPPGFTFGPGTKVDIK
Consider B2, for which the binding result in assay [2] was “no binding”.

B3: CV2-72 (antibody, V domains shown)
VH: EVQLVESGGGLVQPGGSLRLSCAASGFTVSTNYMSWVRQAPGKGLEWVSVIYSGGSTYYVDSVKGRFTISRDNSKNTLYLQMNSLRAEDTAVYYCASTNSGSYSHVFDIWGQGTMVTVSS
VL: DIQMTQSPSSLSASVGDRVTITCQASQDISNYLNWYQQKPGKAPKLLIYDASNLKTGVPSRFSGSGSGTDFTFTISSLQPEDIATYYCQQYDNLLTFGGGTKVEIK
Take B3: in assay [3], the binding result is “no binding”.

B4: CV2-73 (antibody, V domains shown)
VH: QVQLQESGPGLVKPSETLSLTCTVSGGSVSSGSYYWSWIRQPPGKGLEWIGYIYYSGSTNYKYSLKSRVTISVDTSKNQFSLKLSSVTAADTAVYYCAREKGGTEWEFNDAFDIWGQGTMVTVSS
VL: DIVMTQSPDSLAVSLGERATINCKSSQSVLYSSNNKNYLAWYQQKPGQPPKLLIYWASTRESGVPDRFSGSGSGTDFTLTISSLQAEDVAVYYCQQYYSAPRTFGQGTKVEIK
Regarding B4, the binding result in assay [4] is on record as “no binding”.

B5: CV17 (antibody, V domains shown)
VH: not shown
VL: QSALTQPASVSGSPGQSITISCTGTSSDVGSYNLVSWYQQHPGKAPKLMIYEGSKRPSGVSNRFSGSKSGNTASLTISGLQAEDEADYYCCSYAGSSTYVFGTGTKVTVL
notes: expressed as IgG
For B5, the binding result in [5] is listed as “no binding”.

B6: CV2-74 (antibody, V domains shown)
VH: EVQLVQSGAEVKKPGESLRISCKGSGYSFTSYWISWVRQMPGKGLEWMGRIDPSDSYTNYSPSFQGHVTISADKSISTASLQWSSLKASDTAMYYCARQKRDGTTWAFDYWGQGTLVTASS
VL: not shown
With B6, the binding result in assay [6] was “no binding”.

B7: CV2-60 (antibody, V domains shown)
VH: QVQLVQSGAEVKKPGASVKVSCKASGYNFISYGISWVRQAPGQGLEWMGWISAYNGNTNYAQKLQGRVTMTTDTSTSTAYMELRSLRSDDTAVYYCARVRIFGVVIIVDTAMVLDYWGQGTLVTVSS
VL: QSVLTQPPSVSAAPGQKVTISCSGSSSNIGNNYVSWYQQLPGTAPKLLIYENNKRPSGIPDRFSGSKSGTSATLGITGLQTGDEADYYCGTWDSSLSAGVFGGGTKLTVL
For B7, in assay [7], the binding result is “no binding”.

B8: CV2-64 (antibody, V domains shown)
VH: QLQLQESGPGLVKPSETLSLTCTVSGGSISSSSYYWGWIRQPPGKGLEWIGSIYYSGSTYYNPSLKSRVTISVDTSKNQFSLKLSSVTAADTAVYYCARLSGIFGVVIIPGFFDYWGQGTLVTVSS
VL: not shown
B8: the binding result in assay [8] is “no binding”.

B9: CV18 (antibody, V domains shown)
VH: QVQLVQSGAEVKKPGASVKVSCKVSGYTLTELSMHWVRQAPGKGLEWMGGFDPEDGETIYAQKFQGRVTMTEDTSTDTAYMELSSLRSEDTAVYYCATTSPIVGAITWFDPWGQGTLVTVSS
VL: QSVLTQPPSVSAAPGQKVTISCSGSSSNIGNNYVSWYQQLPGTAPKLLIYDNNKRPSGIPDRFSGSKSGTSATLGITGLQTGDEADYYCGTWDSSLSAGPVFGGGTKLTVL
notes: expressed as IgG
Regarding B9, the binding result in assay [9] is listed as “no binding”.

B10: CV21 (antibody, V domains shown)
VH: not shown
VL: EIVLTQSPATLSLSPGERATLSCRASQSVSSYLAWYQQKPGQAPRLLIYDASNRATGIPARFSGSGSGTDFTLTISSLEPEDFAVYYCQQRSNWPLTFGGGTKVEIK
notes: expressed as IgG
On to B10, for which the binding result in assay [10] is reported as “no binding”.

B11: CV23 (antibody, V domains shown)
VH: QVQLVQSGAEVKKPGASVKVSCKASGYTFTSYAMHWVRQAPGQRLEWMGWINAGNGNTKYSQKFQGRVTITRDTSASTAYMELSSLRSEDTAVYYCARVWGYCSGGSCYVDAFDIWGQGTMVTVSS
VL: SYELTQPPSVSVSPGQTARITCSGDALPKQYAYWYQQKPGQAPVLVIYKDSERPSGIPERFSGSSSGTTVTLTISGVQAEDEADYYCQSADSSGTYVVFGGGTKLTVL
notes: expressed as IgG
With B11, the binding result in [11] is “no binding”.

B12: CV2-67 (antibody, V domains shown)
VH: QVQLQESGPGLVKPSETLSLTCTVSGGSISSYYWSWIRQPPGKGLEWIGYIYYSGSTNYNPSLKSRVTISVDTSKNQFSLKLSSVTAADTAVYYCAGTYYDFWSGSTNYYGMDVWGQGTTVTVSS
VL: not shown
With B12, the binding result in assay [12] is “no binding”.

B13: CV2-70 (antibody, V domains shown)
VH: QVQLVQSGAEVKKPGSSVKVSCKASGGTFSSYAITWVRQAPGQGLEWMGGIIPIFGTANYAQKFQGRLTITADDSTSTAYMELSSLKSEDTAVYYCARFRAYDSSGYGPDYWGQGTLVTVSS
VL: EIVLTQSPATLSLSPGERATLSCRASQSVSSYLAWYQQKPGQAPRLLIYDASNRATGIPARFSGSGSGTDFTLTISSLEPEDFAVYYCQQRSNWPPSITFGQGTRLEIK
For the molecule B13, the binding result in assay [13] is recorded as “no binding”.

B14: CV2-69 (antibody, V domains shown)
VH: EVQLLESGGGLVQPGGSLKLSCAASGFTFNSYAMTWVRQAPGKGLEWLSTISGSGGRTYYADSVKGRFAISRDNSKNTVFLQMSTLRAEDTAVYFCARDFYGLESFYPGIDSWGQGTLVTVSS
VL: SYELTQPSSVSVFPGQTARITCSGDVLEKKYARWFQQKPGQAPLLVIYKDSERPSGIPERFFGSSSGTTVTLTISGAQVEDEADYYCYSAADNNRGVFGGGTKLTVL
B14: the binding result in assay [14] was “no binding”.

B15: CV2 (antibody, V domains shown)
VH: QVQLVESGGGVVQPGRSLRLSCAASGFTFSSYAMHWVRQAPGKGLEWVAVISYDGSNKYYADSVKGRFTISRDNSKNTLYLQMNSLRAEDTAVYYCARVRGSYYLFDYWGQGTLVTVSS
VL: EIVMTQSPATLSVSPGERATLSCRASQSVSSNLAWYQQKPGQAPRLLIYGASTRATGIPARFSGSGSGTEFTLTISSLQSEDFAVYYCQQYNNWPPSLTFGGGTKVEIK
notes: expressed as IgG
For B15, the binding result in [15] is recorded as “no binding”.

B16: CV15 (antibody, V domains shown)
VH: EVQLVESGGGLVQPGGSLRLSCAASGFTFSSYWMSWVRQAPGKGLEWVANIKQDGSEKYYVDSVKGRFTISRDNAKNSLYLQMNSLRAEDTAVYYCARDFNSYQLLWYYYYGMDVWGQGTTVTVSS
VL: QSALTQPRSVSGSPGQSVTISCTGTSSDVGGYNYVSWYQQHPGKAPKLMIYDVSKRPSGVPDRFSGSKSGNTASLTISGLQAEDEADYYCCSYAGSYTWVFGGGTKLTVL
notes: expressed as IgG
With B16, in assay [16], the binding result is on record as “no binding”.

B17: CV2-63 (antibody, V domains shown)
VH: QVQLVESGGGVVQPGRSLRLSCAASGFTFSSYAMHWVRQAPGKGLEWVAVISYDGDNKYYADSVKGRFTISRDNSKNTLYLQMNSLRAEDTAVYYCARDPTAVTGPFDYWGQGTLVTVSS
VL: SYELTQPLSVSVALGQTARITCGGNNIGSKNVHWYQQKPGQAPVLVIYRDSNRPSGIPERFSGSNSGNTATLTISRAQAGDEADYFCQVWDSSTVVFGGGTKLTVL
For the molecule B17, in assay [17], the binding result is “no binding”.

B18: CV22 (antibody, V domains shown)
VH: EVQLVESGGGLVKPGGSLRLSCAASGFTFSSYSMNWVRQAPGKGLEWVSSISSSSSYIYYADSVKGRFTISRDNAKNSLYLQMNSLRAEDTAVYYCARDRESYDILTGYSMEGCFDYWGQGTLVTVSS
VL: QLVLTQSPSASASLGASVKLTCTLSSGHSSYAIAWHQQQPEKGPRYLMKLNSDGSHSKGDGIPDRFSGSSSGAERYLTISSLQSEDEADYYCQTWGTGIRVFGGGTKLTVL
notes: expressed as IgG
As for B18, the binding result in assay [18] is reported as “no binding”.
